Measurements as given in the RNAGym collection of RNA variant scans (doi:10.1021/acssynbio.7b00057).

B1: Pistol ribozyme (parent)
chain: GGGUCGUUGUUCCAUAAUCGCGUGGAUAUGGCACGCAAGUUUCUACCGGGCACCGUAAAUGUCCGACUGGAGCCGUUCGGGCGGCUAUAAACAGACCUCAGGCCCGAAGCGUGGCGGCACCUGCCGCCGGUGGUAAAAAAGAUCGGAAGAGCACACGUCU

Variants of: B1
Assay: aptazyme ON/OFF ratio, guanine; higher = stronger switching; co-transcriptional cleavage with and without guanine

Variant	aptazyme ON/OFF ratio
GGGUCGCAUGUUAAUAAUCGCGUGGAUAUGGCACGCAAGUUUCUACCGGGCACCGUAAAUGUCCGACUGGAGCCGUUCGGGCGGCUAUAAACAGACCUCAGGCCCGAAGCGUGGCGGCACCUGCCGCCGGUGGUAAAAAAGAUCGGAAGAGCACACGUCU	1.1
GGGUCGCAUGUUGAUAAUCGCGUGGAUAUGGCACGCAAGUUUCUACCGGGCACCGUAAAUGUCCGACUGGAGCCGUUCGGGCGGCUAUAAACAGACCUCAGGCCCGAAGCGUGGCGGCACCUGCCGCCGGUGGUAAAAAAGAUCGGAAGAGCACACGUCU	1.25
GGGUCGCAUGUUUAUAAUCGCGUGGAUAUGGCACGCAAGUUUCUACCGGGCACCGUAAAUGUCCGACUGGAGCCGUUCGGGCGGCUAUAAACAGACCUCAGGCCCGAAGCGUGGCGGCACCUGCCGCCGGUGGUAAAAAAGAUCGGAAGAGCACACGUCU	1.27
GGGUCGCAUGAUGAUAAUCGCGUGGAUAUGGCACGCAAGUUUCUACCGGGCACCGUAAAUGUCCGACUGGAGCCGUUCGGGCGGCUAUAAACAGACCUCAGGCCCGAAGCGUGGCGGCACCUGCCGCCGGUGGUAAAAAAGAUCGGAAGAGCACACGUCU	1.11
GGGUCGCAUGAUUAUAAUCGCGUGGAUAUGGCACGCAAGUUUCUACCGGGCACCGUAAAUGUCCGACUGGAGCCGUUCGGGCGGCUAUAAACAGACCUCAGGCCCGAAGCGUGGCGGCACCUGCCGCCGGUGGUAAAAAAGAUCGGAAGAGCACACGUCU	1.1
GGGUCGCAUGAUAAUAAUCGCGUGGAUAUGGCACGCAAGUUUCUACCGGGCACCGUAAAUGUCCGACUGGAGCCGUUCGGGCGGCUAUAAACAGACCUCAGGCCCGAAGCGUGGCGGCACCUGCCGCCGGUGGUAAAAAAGAUCGGAAGAGCACACGUCU	1.12
GGGUCGCAUGCUGAUAAUCGCGUGGAUAUGGCACGCAAGUUUCUACCGGGCACCGUAAAUGUCCGACUGGAGCCGUUCGGGCGGCUAUAAACAGACCUCAGGCCCGAAGCGUGGCGGCACCUGCCGCCGGUGGUAAAAAAGAUCGGAAGAGCACACGUCU	1.14
GGGUCGCAUGCUAAUAAUCGCGUGGAUAUGGCACGCAAGUUUCUACCGGGCACCGUAAAUGUCCGACUGGAGCCGUUCGGGCGGCUAUAAACAGACCUCAGGCCCGAAGCGUGGCGGCACCUGCCGCCGGUGGUAAAAAAGAUCGGAAGAGCACACGUCU	1.16
GGGUCGCAUGACAAUAAUCGCGUGGAUAUGGCACGCAAGUUUCUACCGGGCACCGUAAAUGUCCGACUGGAGCCGUUCGGGCGGCUAUAAACAGACCUCAGGCCCGAAGCGUGGCGGCACCUGCCGCCGGUGGUAAAAAAGAUCGGAAGAGCACACGUCU	1.06
GGGUCGCAUGACGAUAAUCGCGUGGAUAUGGCACGCAAGUUUCUACCGGGCACCGUAAAUGUCCGACUGGAGCCGUUCGGGCGGCUAUAAACAGACCUCAGGCCCGAAGCGUGGCGGCACCUGCCGCCGGUGGUAAAAAAGAUCGGAAGAGCACACGUCU	1.07
GGGUCGCAUGACUAUAAUCGCGUGGAUAUGGCACGCAAGUUUCUACCGGGCACCGUAAAUGUCCGACUGGAGCCGUUCGGGCGGCUAUAAACAGACCUCAGGCCCGAAGCGUGGCGGCACCUGCCGCCGGUGGUAAAAAAGAUCGGAAGAGCACACGUCU	1.03
GGGUCGCAUGCAUAUAAUCGCGUGGAUAUGGCACGCAAGUUUCUACCGGGCACCGUAAAUGUCCGACUGGAGCCGUUCGGGCGGCUAUAAACAGACCUCAGGCCCGAAGCGUGGCGGCACCUGCCGCCGGUGGUAAAAAAGAUCGGAAGAGCACACGUCU	1.27
GGGUCGCAUGCAGAUAAUCGCGUGGAUAUGGCACGCAAGUUUCUACCGGGCACCGUAAAUGUCCGACUGGAGCCGUUCGGGCGGCUAUAAACAGACCUCAGGCCCGAAGCGUGGCGGCACCUGCCGCCGGUGGUAAAAAAGAUCGGAAGAGCACACGUCU	1.16
GGGUCGCAUGCAAAUAAUCGCGUGGAUAUGGCACGCAAGUUUCUACCGGGCACCGUAAAUGUCCGACUGGAGCCGUUCGGGCGGCUAUAAACAGACCUCAGGCCCGAAGCGUGGCGGCACCUGCCGCCGGUGGUAAAAAAGAUCGGAAGAGCACACGUCU	1.18
GGGUCGCAUGCGAAUAAUCGCGUGGAUAUGGCACGCAAGUUUCUACCGGGCACCGUAAAUGUCCGACUGGAGCCGUUCGGGCGGCUAUAAACAGACCUCAGGCCCGAAGCGUGGCGGCACCUGCCGCCGGUGGUAAAAAAGAUCGGAAGAGCACACGUCU	1.22
GGGUCGCAUGCGUAUAAUCGCGUGGAUAUGGCACGCAAGUUUCUACCGGGCACCGUAAAUGUCCGACUGGAGCCGUUCGGGCGGCUAUAAACAGACCUCAGGCCCGAAGCGUGGCGGCACCUGCCGCCGGUGGUAAAAAAGAUCGGAAGAGCACACGUCU	1.24
GGGUCGCAUGCGGAUAAUCGCGUGGAUAUGGCACGCAAGUUUCUACCGGGCACCGUAAAUGUCCGACUGGAGCCGUUCGGGCGGCUAUAAACAGACCUCAGGCCCGAAGCGUGGCGGCACCUGCCGCCGGUGGUAAAAAAGAUCGGAAGAGCACACGUCU	1.23
GGGUCGCAUGUCUAUAAUCGCGUGGAUAUGGCACGCAAGUUUCUACCGGGCACCGUAAAUGUCCGACUGGAGCCGUUCGGGCGGCUAUAAACAGACCUCAGGCCCGAAGCGUGGCGGCACCUGCCGCCGGUGGUAAAAAAGAUCGGAAGAGCACACGUCU	1.31

Variant	aptazyme ON/OFF ratio
GGGUCGCAUGUCGAUAAUCGCGUGGAUAUGGCACGCAAGUUUCUACCGGGCACCGUAAAUGUCCGACUGGAGCCGUUCGGGCGGCUAUAAACAGACCUCAGGCCCGAAGCGUGGCGGCACCUGCCGCCGGUGGUAAAAAAGAUCGGAAGAGCACACGUCU	1.08
GGGUCGCAUGUCAAUAAUCGCGUGGAUAUGGCACGCAAGUUUCUACCGGGCACCGUAAAUGUCCGACUGGAGCCGUUCGGGCGGCUAUAAACAGACCUCAGGCCCGAAGCGUGGCGGCACCUGCCGCCGGUGGUAAAAAAGAUCGGAAGAGCACACGUCU	1.41
GGGUCGCAUGCGCAUAAUCGCGUGGAUAUGGCACGCAAGUUUCUACCGGGCACCGUAAAUGUCCGACUGGAGCCGUUCGGGCGGCUAUAAACAGACCUCAGGCCCGAAGCGUGGCGGCACCUGCCGCCGGUGGUAAAAAAGAUCGGAAGAGCACACGUCU	1.26
GGGUCGCAUGCUCAUAAUCGCGUGGAUAUGGCACGCAAGUUUCUACCGGGCACCGUAAAUGUCCGACUGGAGCCGUUCGGGCGGCUAUAAACAGACCUCAGGCCCGAAGCGUGGCGGCACCUGCCGCCGGUGGUAAAAAAGAUCGGAAGAGCACACGUCU	1.07
GGGUCGCAUGCACAUAAUCGCGUGGAUAUGGCACGCAAGUUUCUACCGGGCACCGUAAAUGUCCGACUGGAGCCGUUCGGGCGGCUAUAAACAGACCUCAGGCCCGAAGCGUGGCGGCACCUGCCGCCGGUGGUAAAAAAGAUCGGAAGAGCACACGUCU	1.21
GGGUCGCAUGAGUAUAAUCGCGUGGAUAUGGCACGCAAGUUUCUACCGGGCACCGUAAAUGUCCGACUGGAGCCGUUCGGGCGGCUAUAAACAGACCUCAGGCCCGAAGCGUGGCGGCACCUGCCGCCGGUGGUAAAAAAGAUCGGAAGAGCACACGUCU	1.2
GGGUCGCAUGAGAAUAAUCGCGUGGAUAUGGCACGCAAGUUUCUACCGGGCACCGUAAAUGUCCGACUGGAGCCGUUCGGGCGGCUAUAAACAGACCUCAGGCCCGAAGCGUGGCGGCACCUGCCGCCGGUGGUAAAAAAGAUCGGAAGAGCACACGUCU	1.21
GGGUCGCAUGAGGAUAAUCGCGUGGAUAUGGCACGCAAGUUUCUACCGGGCACCGUAAAUGUCCGACUGGAGCCGUUCGGGCGGCUAUAAACAGACCUCAGGCCCGAAGCGUGGCGGCACCUGCCGCCGGUGGUAAAAAAGAUCGGAAGAGCACACGUCU	1.22
GGGUCGCAUGAACAUAAUCGCGUGGAUAUGGCACGCAAGUUUCUACCGGGCACCGUAAAUGUCCGACUGGAGCCGUUCGGGCGGCUAUAAACAGACCUCAGGCCCGAAGCGUGGCGGCACCUGCCGCCGGUGGUAAAAAAGAUCGGAAGAGCACACGUCU	1.34
GGGUCGCAUGAUCAUAAUCGCGUGGAUAUGGCACGCAAGUUUCUACCGGGCACCGUAAAUGUCCGACUGGAGCCGUUCGGGCGGCUAUAAACAGACCUCAGGCCCGAAGCGUGGCGGCACCUGCCGCCGGUGGUAAAAAAGAUCGGAAGAGCACACGUCU	1.06
GGGUCGCAUGAGCAUAAUCGCGUGGAUAUGGCACGCAAGUUUCUACCGGGCACCGUAAAUGUCCGACUGGAGCCGUUCGGGCGGCUAUAAACAGACCUCAGGCCCGAAGCGUGGCGGCACCUGCCGCCGGUGGUAAAAAAGAUCGGAAGAGCACACGUCU	1.21
GGGUCGCAUGCCCAUAAUCGCGUGGAUAUGGCACGCAAGUUUCUACCGGGCACCGUAAAUGUCCGACUGGAGCCGUUCGGGCGGCUAUAAACAGACCUCAGGCCCGAAGCGUGGCGGCACCUGCCGCCGGUGGUAAAAAAGAUCGGAAGAGCACACGUCU	1.07
GGGUCGCAUGACCAUAAUCGCGUGGAUAUGGCACGCAAGUUUCUACCGGGCACCGUAAAUGUCCGACUGGAGCCGUUCGGGCGGCUAUAAACAGACCUCAGGCCCGAAGCGUGGCGGCACCUGCCGCCGGUGGUAAAAAAGAUCGGAAGAGCACACGUCU	1.05
GGGUCGCAUGAAUAUAAUCGCGUGGAUAUGGCACGCAAGUUUCUACCGGGCACCGUAAAUGUCCGACUGGAGCCGUUCGGGCGGCUAUAAACAGACCUCAGGCCCGAAGCGUGGCGGCACCUGCCGCCGGUGGUAAAAAAGAUCGGAAGAGCACACGUCU	1.21
GGGUCGCAUGAAGAUAAUCGCGUGGAUAUGGCACGCAAGUUUCUACCGGGCACCGUAAAUGUCCGACUGGAGCCGUUCGGGCGGCUAUAAACAGACCUCAGGCCCGAAGCGUGGCGGCACCUGCCGCCGGUGGUAAAAAAGAUCGGAAGAGCACACGUCU	1.09
GGGUCGCAUGAAAAUAAUCGCGUGGAUAUGGCACGCAAGUUUCUACCGGGCACCGUAAAUGUCCGACUGGAGCCGUUCGGGCGGCUAUAAACAGACCUCAGGCCCGAAGCGUGGCGGCACCUGCCGCCGGUGGUAAAAAAGAUCGGAAGAGCACACGUCU	1.35
GGGUCGCAUGUGUAUAAUCGCGUGGAUAUGGCACGCAAGUUUCUACCGGGCACCGUAAAUGUCCGACUGGAGCCGUUCGGGCGGCUAUAAACAGACCUCAGGCCCGAAGCGUGGCGGCACCUGCCGCCGGUGGUAAAAAAGAUCGGAAGAGCACACGUCU	1.22
GGGUCGCAUGUUCAUAAUCGCGUGGAUAUGGCACGCAAGUUUCUACCGGGCACCGUAAAUGUCCGACUGGAGCCGUUCGGGCGGCUAUAAACAGACCUCAGGCCCGAAGCGUGGCGGCACCUGCCGCCGGUGGUAAAAAAGAUCGGAAGAGCACACGUCU	1.41
